According to patent US20220251595A1, “ENGINEERED ATRLP23 PATTERN RECOGNITION RECEPTORS AND METHODS OF USE” (priority 2019, published 2022):

B1: AtRLP23+TM-AtEFR-3×FLAG: AtRLP23 apoplastic, eJM and TM domains, AtEFR cytoplasmic domain, 3×FLAG; SEQ ID NO: 33, 34 (protein)
chain: MSKALLHLHFLSLFLLCCVCHSSIFTLNFHFTGIVACRPHQIQAFTKFTNEFDTRGCNNSDTFNGVWCDNSTGAVAVLQLRKCLSGTLKSNSSLFGFHQLRYVDLQNNNLTSSSLPSGFGNLKRLEGLFLSSNGFLGQVPSSFSNLTMLAQLDLSYNKLTGSFPLVRGLRKLIVLDLSYNHFSGTLNPNSSLFELHQLRYLNLAFNNFSSSLPSKFGNLHRLENLILSSNGFSGQVPSTISNLTRLTKLYLDQNKLTSSFPLVQNLTNLYELDLSYNKFFGVIPSSLLTLPFLAHLALRENNLAGSVEVSNSSTSSRLEIMYLGSNHFEGQILEPISKLINLKHLDLSFLNTSYPIDLKLFSSLKSLRSLDLSGNSISSASLSSDSYIPLTLEMLTLRHCDINEFPNILKTLKELVYIDISNNRMKGKIPEWLWSLPLLQSVTLGNNYFTGFQGSAEILVNSSVLLLYLDSNNFEGALPDLPLSIKGFGVASNSFTSEIPLSICNRSSLAAIDLSYNNFTGPIPPCLRNLELVYLRNNNLEGSIPDALCDGASLRTLDVSHNRLTGKLPRSFVNCSSLKFLSVINNRIEDTFPFWLKALPNLQVLTLRSNRFYGPISPPHQGPLGFPELRIFEISDNKFTGSLPPNYFVNWKASSRTMNQDGGLYMVYEEKLFDEGGYGYTDALDLQYKGLHMEQAKALTSYAAIDFSGNRLEGQIPESIGLLKALIAVNISNNAFTGHIPLSMANLENLESLDMSRNQLSGTIPNGLGSISFLAYINVSHNQLTGEIPQGTQITGQSKSSFEGNAGLCGLPLKESCFGTGAPPMYHQKQEDKEEEEEEEEEEEEVLNGRAVAIGYGSGLLLGLAIAQVIASYKRKKKNNASDGNPSDSTTLGMFHEKVSYEELHSATSRFSSTNLIGSGNFGNVFKGLLGPENKLVAVKVLNLLKHGATKSFMAECETFKGIRHRNLVKLITVCSSLDSEGNDFRALVYEFMPKGSLDMWLQLEDLERVNDHSRSLTPAEKLNIAIDVASALEYLHVHCHDPVAHCDIKPSNILLDDDLTAHVSDFGLAQLLYKYDRESFLNQFSSAGVRGTIGYAAPEYGMGGQPSIQGDVYSFGILLLEMFSGKKPTDESFAGDYNLHSYTKSILSGCTSSGGSNAIDEGLRLVLQVGIKCSEEYPRDRMRTDEAVRELISIRSKFFSSKTTITESPRDAPQSSPQEWMLNTDMHTMASDYKDHDGDYKDHDLDAAAADYKDDDDK
modifications: Fusion protein
B2: AtRLP23+TM-AtBAK1-3×FLAG: AtRLP23 apoplastic, eJM and TM domains, AtBAK1 cytoplasmic domain, 3×FLAG; SEQ ID NO: 37, 38 (protein)
chain: MSKALLHLHFLSLFLLCCVCHSSIFTLNFHFTGIVACRPHQIQAFTKFTNEFDTRGCNNSDTFNGVWCDNSTGAVAVLQLRKCLSGTLKSNSSLFGFHQLRYVDLQNNNLTSSSLPSGFGNLKRLEGLFLSSNGFLGQVPSSFSNLTMLAQLDLSYNKLTGSFPLVRGLRKLIVLDLSYNHFSGTLNPNSSLFELHQLRYLNLAFNNFSSSLPSKFGNLHRLENLILSSNGFSGQVPSTISNLTRLTKLYLDQNKLTSSFPLVQNLTNLYELDLSYNKFFGVIPSSLLTLPFLAHLALRENNLAGSVEVSNSSTSSRLEIMYLGSNHFEGQILEPISKLINLKHLDLSFLNTSYPIDLKLFSSLKSLRSLDLSGNSISSASLSSDSYIPLTLEMLTLRHCDINEFPNILKTLKELVYIDISNNRMKGKIPEWLWSLPLLQSVTLGNNYFTGFQGSAEILVNSSVLLLYLDSNNFEGALPDLPLSIKGFGVASNSFTSEIPLSICNRSSLAAIDLSYNNFTGPIPPCLRNLELVYLRNNNLEGSIPDALCDGASLRTLDVSHNRLTGKLPRSFVNCSSLKFLSVINNRIEDTFPFWLKALPNLQVLTLRSNRFYGPISPPHQGPLGFPELRIFEISDNKFTGSLPPNYFVNWKASSRTMNQDGGLYMVYEEKLFDEGGYGYTDALDLQYKGLHMEQAKALTSYAAIDFSGNRLEGQIPESIGLLKALIAVNISNNAFTGHIPLSMANLENLESLDMSRNQLSGTIPNGLGSISFLAYINVSHNQLTGEIPQGTQITGQSKSSFEGNAGLCGLPLKESCFGTGAPPMYHQKQEDKEEEEEEEEEEEEVLNGRAVAIGYGSGLLLGLAIAQVIASYRRKKPQDHFFDVPAEEDPEVHLGQLKRFSLRELQVASDNFSNKNILGRGGFGKVYKGRLADGTLVAVKRLKEERTQGGELQFQTEVEMISMAVHRNLLRLRGFCMTPTERLLVYPYMANGSVASCLRERPESQPPLDWPKRQRIALGSARGLAYLHDHCDPKIIHRDVKAANILLDEEFEAVVGDFGLAKLMDYKDTHVTTAVRGTIGHIAPEYLSTGKSSEKTDVFGYGVMLLELITGQRAFDLARLANDDDVMLLDWVKGLLKEKKLEALVDVDLQGNYKDEEVEQLIQVALLCTQSSPMERPKMSEVVRMLEGDGLAERWEEWQKEEMFRQDFNYPTHHPAVSGWIIGDSTSQIENEYPSGPRSDYKDHDGDYKDHDLDAAAADYKDDDDK
modifications: Fusion protein
B3: AtRLP23-OsXA21-3×FLAG: AtRLP23 apoplastic and eJM domains, OsXA21 TM and cytoplasmic domains, 3×FLAG; SEQ ID NO: 21, 22 (protein)
chain: MSKALLHLHFLSLFLLCCVCHSSIFTLNFHFTGIVACRPHQIQAFTKFTNEFDTRGCNNSDTFNGVWCDNSTGAVAVLQLRKCLSGTLKSNSSLFGFHQLRYVDLQNNNLTSSSLPSGFGNLKRLEGLFLSSNGFLGQVPSSFSNLTMLAQLDLSYNKLTGSFPLVRGLRKLIVLDLSYNHFSGTLNPNSSLFELHQLRYLNLAFNNFSSSLPSKFGNLHRLENLILSSNGFSGQVPSTISNLTRLTKLYLDQNKLTSSFPLVQNLTNLYELDLSYNKFFGVIPSSLLTLPFLAHLALRENNLAGSVEVSNSSTSSRLEIMYLGSNHFEGQILEPISKLINLKHLDLSFLNTSYPIDLKLFSSLKSLRSLDLSGNSISSASLSSDSYIPLTLEMLTLRHCDINEFPNILKTLKELVYIDISNNRMKGKIPEWLWSLPLLQSVTLGNNYFTGFQGSAEILVNSSVLLLYLDSNNFEGALPDLPLSIKGFGVASNSFTSEIPLSICNRSSLAAIDLSYNNFTGPIPPCLRNLELVYLRNNNLEGSIPDALCDGASLRTLDVSHNRLTGKLPRSFVNCSSLKFLSVINNRIEDTFPFWLKALPNLQVLTLRSNRFYGPISPPHQGPLGFPELRIFEISDNKFTGSLPPNYFVNWKASSRTMNQDGGLYMVYEEKLFDEGGYGYTDALDLQYKGLHMEQAKALTSYAAIDFSGNRLEGQIPESIGLLKALIAVNISNNAFTGHIPLSMANLENLESLDMSRNQLSGTIPNGLGSISFLAYINVSHNQLTGEIPQGTQITGQSKSSFEGNAGLCGLPLKESCFGTGAPPMYHQKQEDKEEEEEEEEEEEEVLNGRFPVLPISVSLAAALAILSSLYLLITWHKRTKKGAPSRTSMKGHPLVSYSQLVKATDGFAPTNLLGSGSFGSVYKGKLNIQDHVAVKVLKLENPKALKSFTAECEALRNMRHRNLVKIVTICSSIDNRGNDFKAIVYDFMPNGSLEDWIHPETNDQADQRHLNLHRRVTILLDVACALDYLHRHGPEPVVHCDIKSSNVLLDSDMVAHVGDFGLARILVDGTSLIQQSTSSMGFIGTIGYAAPEYGVGLIASTHGDIYSYGILVLEIVTGKRPTDSTFRPDLGLRQYVELGLHGRVTDVVDTKLILDSENWLNSTNNSPCRRITECIVWLLRLGLSCSQELPSSRTPTGDIIDELNAIKQNLSGLFPVCEGGSLEFSDYKDHDGDYKDHDLDAAAADYKDDDDK
modifications: Fusion protein
B4: AtRLP23-AtSOBIR1-3×FLAG: AtRLP23 apoplastic and eJM domains, AtSOBIR1 TM and cytoplasmic domains, 3×FLAG; SEQ ID NO: 29, 30 (protein)
chain: MSKALLHLHFLSLFLLCCVCHSSIFTLNFHFTGIVACRPHQIQAFTKFTNEFDTRGCNNSDTFNGVWCDNSTGAVAVLQLRKCLSGTLKSNSSLFGFHQLRYVDLQNNNLTSSSLPSGFGNLKRLEGLFLSSNGFLGQVPSSFSNLTMLAQLDLSYNKLTGSFPLVRGLRKLIVLDLSYNHFSGTLNPNSSLFELHQLRYLNLAFNNFSSSLPSKFGNLHRLENLILSSNGFSGQVPSTISNLTRLTKLYLDQNKLTSSFPLVQNLTNLYELDLSYNKFFGVIPSSLLTLPFLAHLALRENNLAGSVEVSNSSTSSRLEIMYLGSNHFEGQILEPISKLINLKHLDLSFLNTSYPIDLKLFSSLKSLRSLDLSGNSISSASLSSDSYIPLTLEMLTLRHCDINEFPNILKTLKELVYIDISNNRMKGKIPEWLWSLPLLQSVTLGNNYFTGFQGSAEILVNSSVLLLYLDSNNFEGALPDLPLSIKGFGVASNSFTSEIPLSICNRSSLAAIDLSYNNFTGPIPPCLRNLELVYLRNNNLEGSIPDALCDGASLRTLDVSHNRLTGKLPRSFVNCSSLKFLSVINNRIEDTFPFWLKALPNLQVLTLRSNRFYGPISPPHQGPLGFPELRIFEISDNKFTGSLPPNYFVNWKASSRTMNQDGGLYMVYEEKLFDEGGYGYTDALDLQYKGLHMEQAKALTSYAAIDFSGNRLEGQIPESIGLLKALIAVNISNNAFTGHIPLSMANLENLESLDMSRNQLSGTIPNGLGSISFLAYINVSHNQLTGEIPQGTQITGQSKSSFEGNAGLCGLPLKESCFGTGAPPMYHQKQEDKEEEEEEEEEEEEVLNGRVAAWILGFVVGAIGGTISGFVFSVLFKLIIQAIRGSEKPPGPSIFSPLIKKAEDLAFLENEEALASLEIIGRGGCGEVFKAELPGSNGKIIAVKKVIQPPKDADELTDEDSKFLNKKMRQIRSEINTVGHIRHRNLLPLLAHVSRPECHYLVYEYMEKGSLQDILTDVQAGNQELMWPARHKIALGIAAGLEYLHMDHNPRIIHRDLKPANVLLDDDMEARISDFGLAKAMPDAVTHITTSHVAGTVGYIAPEFYQTHKFTDKCDIYSFGVILGILVIGKLPSDEFFQHTDEMSLIKWMRNIITSENPSLAIDPKLMDQGFDEQMLLVLKIACYCTLDDPKQRPNSKDVRTMLSQIKHSDYKDHDGDYKDHDLDAAAADYKDDDDK
modifications: Fusion protein

Tested on: corn protoplasts
Test: Calcium burst in transiently transfected corn protoplasts, R-GECO1.2 fluorescence reporter
Type: cell-based, Zea mays
Settings: Example 3, FIG. 4; 1 μM PpNLP20; 40 minutes; 384-well
Description: Following ligand (also known as elicitor) binding, PRRs are activated and induce a transient increase of cytosolic Ca^2+ concentration as part of a PTI response. […] In a high-throughput method, the kinetics of PRR-dependent transient variation of cytosolic Ca^2+ concentration can be measured with a fluorimeter or luminometer and in microplate formats of 96 or 384 wells.
Fluorescence was monitored using a fluorimeter equipped with a 100 Hz xenon flash lamp with excitation at 556 nm and emission measured at 585 nm for 100 ms, every 22.6 seconds for 42 minutes.
All of the AtRLP23 constructs have an operably linked 2×35S+Ω promoter construct (SEQ ID NO: 72) and an operably linked rbcS terminator (SEQ ID NO: 73)
Fluorescence was monitored using a fluorimeter equipped with a 100 Hz xenon flash lamp with excitation at 556 nm and emission measured at 585 nm for 30 ms, every 20.2 seconds for 40 minutes. For each fluorescence measurement, the transient change in R-GECO1.2 fluorescence (ΔF) are calculated from background corrected intensity values as (F-Fo), where F represents the average fluorescence intensity of the a batch of protoplasts treated with elicitor, and Fo represents the average fluorescence intensity of the same batch of protoplasts treated with a control solution that lacks the elicitor but is otherwise identical or essentially identical in composition to the solution comprising the elicitor.

| Molecule | responsiveness to PpNLP20 treatment compared to AtRLP23-3×FLAG (total transient increase of fluorescence) |
| --- | --- |
| B1 | comparable responsiveness |
| B2 | reduced responsiveness |
| B3 | increased responsiveness |
| B4 | reduced responsiveness |
